{"source": "paper PMC7086397", "target": "actin filament (UniProt P68135)", "experiment": "fluorescence microscopy in a microfluidics chamber"}
{"substance": "fascin (from UniProt Q16658 1-493) (natural protein)", "values": [{"measurement": "Kd", "result": 75, "unit": "nM"}]}
